Experimental data: patent US6946588B2, “Nucleic acid encoding a modified threonine deaminase and methods of use” (Monsanto Technology LLC, priority 1996, dated 2005)

Experiments:
[1] = Storage stability of purified BktB; type: physicochemical; conditions: 10 mM Tris-HCl, pH 7.8, 1 mM DTT, 50% glycerol at −20° C.
Experimental: Purified BktB protein was prepared by growing E. coli EE36 transformed with pMON25754 in LB broth containing ampicillin (100μg/ml) overnight at 37° C. Cells were then harvested by centrifugation, and the pellet was resuspended in 50 mM KPi and 5% glycerol, sonicated, and the sonicate centrifuged to remove cellular debris. The cell extract was desalted using a PD-10 column (Pharmacia), and proteins resolved using a Pharmacia FPLC system and MonoQ anion-exchange column (Pharmacia). Buffer A was 10 mM Tris buffer, pH 7.8, plus 1 mM DTT; buffer B was buffer A plus 1 M KCl. The gradient was 0 to 10% B in 10 min, then to 35% B in 40 min. The flow rate was 1 ml/min, and the resolved proteins were collected at the rate of 1 ml/fraction. The BktB protein was found in fractions 20 to 27, with the maximum activity peak at fraction 23. […] The enzyme was stored in 10 mM Tris-HCl, pH 7.8, 1 mM DTT, 50% glycerol at −20° C.

[2] = tested on: A. eutrophus PhbA and BktB β-ketothiolases; experiment: β-Ketothiolase condensation assay with 1-14C-acetyl-CoA (PhbA, BktB); type: biochemical; conditions: 0.30 mM acetyl-CoA
From the text: As noted above, A. eutrophus can produce P(3HB-co-3HV) copolymer when provided with an appropriate C5 precursor. […] One of these β-ketothiolases, designated BktB herein, was encoded on plasmid pBK6. A. eutrophus BktB was obtained from E. coli DH5α transformed with plasmid pMON25754. pMON25754 was produced from the A. eutrophus pBK6 clone (Slater et al., 1988) by deleting a 5.0 kb XhoI fragment (there is an additional XhoI site approximately 5.0 kb 5′ to the XhoI site shown in FIG. 1 of Slater et al.). The pBK6 clone was produced by Slater et al. (1988) from A. eutrophus H16, i.e., ATCC accession number 17699, which is publicly available from the American Type Culture Collection, 12301 Parklawn Drive, Rockville, Md. 20852. BktB was overexpressed from its native promoter on the high copy plasmid pMON25754 by growing the cells overnight at 37° C. to stationary phase in LB broth containing ampicillin (100 μg/ml). A. eutrophus PhbA was obtained from E. coli DH5α transformed with pMON25636 (FIG. 20) by growing the cells at 37° C. in LB broth containing ampicillin (100 μg/ml) to early log phase and then inducing with IPTG. Cells were harvested after two hours of further growth.
The activity of β-ketothiolases can be assayed in both the condensation and thiolysis directions. However, condensation activity for products that are the result of a mixed condensation of acetyl-CoA and a longer chain acyl-CoA are difficult to measure. This is due to the difficulty in distinguishing between acetoacetyl-CoA, the product of condensing two acetyl-CoA molecules, and the mixed condensation reaction product, both of which form simultaneously. To date, condensation assays have been spectrophotometrically-based, but these are valid only when there is a single acyl-CoA substrate present (i.e., acetyl-CoA) since they cannot discriminate between the products formed. The assay described below represents the first reported assay that permits complete quantitation of all condensation products regardless of the nature of starting substrates.
β-ketothiolase assays designed to measure the condensation activity with acetyl-CoA plus either propionyl-CoA or butyryl-CoA were performed using 1-^14C-labelled acetyl-CoA. Since the equilibrium for the reaction lies heavily toward the starting acyl-CoAs rather than the condensed β-ketoacyl-CoA product, the latter was “pulled” to the corresponding β-hydroxyacyl-CoA using NADH and β-ketoacyl-CoA dehydrogenase. In addition, to avoid the strong feedback inhibition of β-ketothiolase by free CoA, each assay solution contained 5,5′-dithio-bis(2-nitrobenzoic acid) (DTNB) to trap chemically the free CoA produced by the reaction.
The condensation assay mixture (0.5 ml final volume) contained 100 mM KPi, pH 7.8, 0.5 mM NADH, 0.30 mM 1-^14C-acetyl-CoA (0.15 μCi), 5 units β-ketoacyl-CoA dehydrogenase, 0.5 mM DTNB, and variable propionyl- or butyryl-CoA as indicated in Table 5. The reaction was initiated by the addition of β-ketothiolase. Following 20 minutes at 30° C., each reaction mixture was quenched by the addition of 25 μl of 10% formic acid. Thirty μl of 25% H2SO4 were added to 200 μl of quenched reaction mix; this mixture was then incubated at 70° C. for 24 hours to hydrolyze all CoA thioesters to their free acids. Sixty μl of 5 M sodium formate were added to the sample to neutralize the pH, followed by analysis of a 130 μl aliquot using C18-reverse-phase HPLC (0.5×25 cm column). Detection and quantitation were carried out by monitoring flow-through with a Radiomatic flow detector. A gradient elution was employed using aqueous 1% acetic acid (solvent A) and acetonitrile (solvent B). […]

[3] = tested on: E. coli DH5α cells; experiment: PHA production by transformed E. coli DH5α on glucose and propionate (GC analysis); type: cell-based; conditions: Set 2 versus Set 1
Experimental: E. coli DH5α cells contining both sets of plasmids expressing all of the required PHA biosynthesis enzymes were grown on 50 ml of LB broth containing all three antibiotics supplemented with 0.75% glucose and 0.15% propionate. The tac promoters were induced with IPTG at a final concentration of 0.5 mM. Nalidixic acid was added to a final concentration of 60 μg/ml. The cells were grown under antibiotic selection (see above) for 24 hours and assayed for the presence of PHA polymer. Cells were centrifuged at 7,000 rpm for 20 min., washed with 25 ml methanol, recentrifuged, washed with 15 ml hexane, and recentrifuged. Cell pellets were dried under N2 for two hours, and the dry cell weights determined. 6.5 ml of chloroform were added to extract the PHA at 100° C. for one hour. The solution was cooled and filtered through a PTFE syringe filter (13 mm diameter, 0.45 μm pore). The PHA was precipitated by the addition of 50 ml of methanol, centrifuged, and washed with hexane. The polymer was dried at 70° C. for two hours, and polymer weight was determined. Methanolysis was performed by dissolving 3-5 mg of PHA sample by the addition of 1 ml of CHCl3, with methyl benzoate as an internal standard for normalization of the data. […] The solution was then analyzed by gas chromatography as described in the section entitled “In vivo Analysis of Cloned E. coli ilvA Genes”.

B1: BktB: A. eutrophus β-ketothiolase encoded on pBK6, amino acid sequence SEQ ID NO:11 (protein, listed as Alcaligenes eutrophus)
chain: MTREVVVVSGVRTAIGTFGGSLKDVAPAELGALVVREALARAQVSGDDVGHVVFGNVIQTEPRDMYLGRVAAVNGGVTINAPALTVNRLCGSGLQAIVSAAQTILLGDTDVAIGGGAESMSRAPYLAPAARWGARMGDAGLVDMMLGALHDPFHRIHMGVTAENVAKEYDISRAQQDEAALESHRRASAAIKAGYFKDQIVPVVSKGRKGDVTFDTDEHVRHDATIDDMTKLRPVFVKENGTVTAGNASGLNDAAAAVVMMERAEAERRGLKPLARLVSYGHAGVDPKAMGIGPVPATKIALERAGLQVSDLDVIEANEAFAAQACAVTKALGLDPAKVNPNGSGISLGHPIGATGALITVKALHELNRVQGRYALVTMCIGGGQGIAAIFERI
[1]
  stability of activity on storage: Activity remained constant for a minimum of two months
[2]; butyryl-CoA 0.6 mM
  % Turnover C4 Product: 1.0%
  % Turnover C6 Product: 4.9%
[2]; butyryl-CoA 1.2 mM
  % Turnover C4 Product: 0.6%
  % Turnover C6 Product: 7.3%
[2]; butyryl-CoA 2.4 mM
  % Turnover C4 Product: 0.4%
  % Turnover C6 Product: 7.9%
[2]; propionyl-CoA 0 mM
  % Turnover C4 Product: 4.2%
[2]; propionyl-CoA 0.6 mM
  % Turnover C4 Product: 1.8%
  % Turnover C5 Product: 13.2%
[2]; propionyl-CoA 1.2 mM
  % Turnover C4 Product: 1.0%
  % Turnover C5 Product: 15.6%
[2]; propionyl-CoA 2.4 mM
  % Turnover C4 Product: 0.7%
  % Turnover C5 Product: 17.8%
[3]
  greater percentage of the C5 monomer than cells expressing the PhbA β-ketothiolase: five-to-six-fold
